Test results taken from the DeepSol protein solubility set.

Assay: soluble on expression in E. coli; label from the status in PepcDB or PDB records
With “GAGTLIKDNLKRDLITSLPFEISLKIFNYLQFEDIINSLGVSQNWNKIIRKSTSLWKKLLISENFVSPKGFNSLNLKLSQKYPKLSQQDRLRLSFLENIFILKNWYNPKFVPQRTTLRGHMTSVITCLQFEDNYVITGADDKMIRVYDSINKKFLLQLSGHDGGVWALKYAHGGILVSGSTDRTVRVWDIKKGCCTHVFEGHNSTVRCLDIVEYKNIKYIVTGSRDNTLHVWKLPKESSVPDHGEEHDYPLVFHTPEENPYFVGVLRGHMASVRTVSGHGNIVVSGSYDNTLIVWDVAQMKCLYILSGHTDRIYSTIYDHERKRCISASMDTTIRIWDLENGELMYTLQGHTALVGLLRLSDKFLVSAAADGSIRGWDANDYSRKFSYHHTNLSAITTFYVSDNILVSGSENQFNIYNLRSGKLVHANILKDADQIWSVNFKGKTLVAAVEKDGQSFLEILDFS” the “soluble on expression in E. coli” value was “soluble”. In the case of “GMKPLKEVVGAYLALSDAQRQLVAGEYDEAAANCRRAMEISHTMPPEEAFDHAGFDAFCHAGLAEALAGLRSFDEALHSADKALHYFNRRGELNQDEGKLWISAVYSRALALDGLGRGAEAMPEFKKVVEMIEERKGETPGKERMMEVAIDRIAQLGAS”, the “soluble on expression in E. coli” value is reported as “soluble”. For “MTEVLIKVDLNQPVTENEQIHNRWHPDIPMACWVKPGEDFILETYDWTAGAIKNNDDASDVRDVDLSTVHYLSGPVGVHGAEPGDLLVVDLLDIGARADSQWGFNGFFSRQNGGGFLTDHFPMAQKAIWDFKGMMTSSRHIPGVEFAGLIHPGLIGCLPDHKMLAEWNRREQELIDTDPGRVPPLANPPHAKTAHLGKMKGGPERDLAAATGARTVPPREHGGNCDIKDLSRGSKVFFPVYVDGAGLSVGDLHFSQGDGEITFCGAIEMAGWVHMRVELIKGGMAKYGIKNPVFKPSPIVPTYNKYLIFEGISVDESGQQHYLDVNVAYRQACLNAINYMTKFGYSPAQGYALLGSAPVQGHISGIVDIPNACATLWLPTEIFKFDINPNADGPTRFIDGSIDLPIAPDKLEHHHHHH”, the “soluble on expression in E. coli” value was “not soluble”. For “MSEDILPITISLAGEKDTIRLGEDLALALKPGDCLTLIGDLGAGKSTLARAFIRAMADEPDLEVPSPTFTIIQTYTTRIPVAHLDLYRLSDVSELDELGIDEMLEDGICLIEWPDIAAEVLPPAQTITLQLTHSGEGRVAVIEAPAQQKARLDRVFAIREFLAKNGRGDATRRFLSGDASTRAYETISTDGPDLILMDWRRPMRGAIVADGKTYAEIVHLAQDARSFVAIGDYLRNSGFRAPEILAADIDQGILLLEDLGREGVLAADGTPIEERYLQSVACLATLHQTPRPALLPMRDGSTYDIPSFDRQAMKIEVSLLVEWYLPHKRGKALTDGEKQDYYAIWDGLIDALAGCETGLLLRDFHSPNILWQAQNSGIGQVGLIDFQDAMIGPTAYDLASIVQDARVTIPPELQTRLMSHYLNSRKATPAFDEAAFLKAFAIMSAQRNCKLAGIWVRLLERDKKPGYMKHMPRTFRYLADALSHPELAPLREWCVRMGMDFNDLEHHHHHH”, the “soluble on expression in E. coli” value was “soluble”. In the case of “MANFIDRRLNAKGKSTVNRQRFINRYKQQIKKAVSDAVTRRSVTDVDKGEKISIPTRDISEPMFHQGKGGVRDRVHPGNDQFTRGDKIDRPQGGSGGGAGKGDASDSGEGNDDFVFEISKDEYLELLFEDLELPNLQKNRLNKLVEYQIYRAGFTNDGVPANINIVRSLRSSLARRIAMSASKKKLLKESEQELAELENIPGTKAELILDLKAQIEELKRKIAKVPFIDTFDLRFNNFSRREVPSSQAVMFCLMDVSGSMDQATKDMAKRFYILLYLFLTRTYKNLEVVYIRHHTQAKEVDEHEFFYSQETGGTIVSSALKLMHEIQQARYPADEWNIYAAQASDGDNWADDSPTCKQLLEQKILPLVRYFSYIEITNRAHQTLWREYESLQQHYDNIAVQHIRQAEDIYPVFRELFKKQAVLEHHHHHH”, the “soluble on expression in E. coli” value is reported as “not soluble”. In the case of “MGSDKIHHHHHHMNFQQCRYVEAIANTGSFSEAAKKLYVTQPNLSSSIKELENDLGVQLFIRSNTGARLTDDGYDFLKYAKRILGEADLLKKRYQDNYKKSFTISSHHYDFLAIPLLEIAEKFKKDFQHFHLIETTTKKILESVLNFESDLGILYLNDDNRHILERYFKQHDLAFTPLGDFPTRIFLRKDHPLAQQKVIEKVQLKDYKQVRFRQEISGLNFDEDTLDIPENQSVFYSNDRGTIMNILCGSDAYASGLGIVNSFIKDQIVLIPLKDSKMHTLGFVSNKRKQETDITQQFITAVKNSLRTYERGTQL”, the “soluble on expression in E. coli” value is reported as “not soluble”. For “SLSLESLEWMAFDSFLLWRSEESIDARILLVEINQNDNYSLTSTISNSSFIGVIEKLQVYQPKVIGLEVDQHLLINSQEDKLAKIFQKYKNLIANEKILPLQVHSYLDLPNEQITFADQILDNDGKSRRSLLAINTSNGYKLSLAMELARIYLAEKNISLENSRLGKTKLPRFLPNSGGYIRADASGFQVLINFRSGNQRFRTLSGEDIKNGKFNPEWIRDRIVIIGITNTHNQGFIPTSAITSVKSASTQVNKLEIQAHAISQIISAVLDGRPLINTWNDG”, the “soluble on expression in E. coli” value was “soluble”. In the case of “PKTLYDKIWDAHLAHEAEDGTCLLYIDRHLVHEVTSPQAFEGLRMAGRKVRAPEKTIAVPDHNVPTTEGREDPAQMTEESRIQVQALDKNAREFGVHYYPVDDIRQGIVHIVGPEQGWTLPGMTVVCGDSHTATHGAFGALAHGIGTSEVEHVLATQTLIQKKSKN”, the “soluble on expression in E. coli” value is reported as “not soluble”. For “MGSDKIHHHHHHMVTNVRIGAMQAYMVAEPWNTRAITGNENIGFTFAQGKEVWLGHPDRLLGVMESFIDKYPKTYRSLVKAMIEACQYCSKAENRQEVAELLTERSFTGARPKKKGAPIAKFTSPGILGNYNYGGFDGKDRTIKAADTTIFFDIPDNLPKQPGEHSTFLWRSRSIWLMTQAARWGQIKEFPKNADKLAQQGWRTDLYREIASEMGIQCPKDDYKVEPPEVFIDKKGFDPSDPVGYLNSFAIRANAPTNFFMS”, the “soluble on expression in E. coli” value was “not soluble”. For “MRVGLFTDSYFPQISGVATSIRTLALELEKLGHEVFIFTTTDPNADVDHERNIIRLQSIPFVSLAERKIVLKGVFAAYLIAKEYDLDIIHTQTEFGMGILGKMVAAQLRIPVIHTLHTKYEDYVYYIAKGRLIRPSMVKYIIRNFLRGTEAIICPSEMVLETVNSYGVTLPKRVIPTGIEIDRFKRDDIEPEETAKLRVELGLAENEIMLLSLSRIAAEKNIQAVIHALPDILEEFPVKLVIVGHGPYAENLKELVKELELTDKVVFTGPVENEKTAYYYKAADFFISASTSETQGLTYLEAMAAGTRVLAAKNPYLSELINDDEFGQLFIGDDDLAEVTKKAIRDLHPIDKDKFEKKLYEISAENFAKKVYLFYIDTIIEYNNLKSIEAERFPMKMEDTIRQMPVTVKRSLKREQIRAKYFARKASKLAKNLQSYVKIDKDKEQDLEHHHHHH”, the “soluble on expression in E. coli” value was “soluble”. With “MESGPAVCCQDPRAELVDRVAAINVAHLEEADEGPEPARNGVDPPPRARAASVIPGSASRPTPVRPSLSARKFSLQERPAGSCLGAQVGPYSTGPASHISPRSWRRPTIESHRVAISDTEDCVQLNQYKLQSEIGKGAYGVVRLAYNESEDRHYAMKVLSKKKLLKQYGFPRRPPPRGSQATQGGPAKQLLPLERVYQEIAILKKLDHVNVVKLIEVLDDPAEDNLYLVFDLLRKGPVMEVPCDKPFPEEQARLYLRDIILGLEYLHCQKIVHRDIKPSNLLLGDDGHVKIADFGVSNQFEGNDAQLSSTAGTPAFMAPEAISDSGQSFSGKALDVWATGVTLYCFVYGKCPFIDDYILTLHRKIKNEAVVFPEEPEVSEDLKDLILRMLDKNPETRIGVSDIKLHPWVTKHGEEPLPSEEEHCSVVEVTEEEVKNSVRLIPSWTTVILVKSMLRKRSFGNPFEPQARREERSMSAPGSLLMKEGCGEGCKSPELPGVQEDEAAS” the “soluble on expression in E. coli” value was “soluble”. With “MEQRFPELNVDLSFEQEFQMRVMEEQVSAMSLQEARELLLQASRLLMMKDNVIRSLVKRAARS” the “soluble on expression in E. coli” value was “soluble”. In the case of “MNDIAHNLAQVRDKISAAATRCGRSPEEITLLAVSKTKPASAIAEAIDAGQRQFGENYVQEGVDKIRHFQELGVTGLEWHFIGPLQSNKSRLVAEHFDWCHTIDRLRIATRLNDQRPAELPPLNVLIQINISDENSKSGIQLAELDELAAAVAELPRLRLRGLMAIPAPESEYVRQFEVARQMAVAFAGLKTRYPHIDTLSLGMSDDMEAAIAAGSTMVRIGTAIFGARDYSKK”, the “soluble on expression in E. coli” value is reported as “soluble”. For “RPQNTNSWQKDSIEGIDIMLAMDVSGSMQAMDFKPNRLEAAKDVAISFINNRPNDNIGMVTFAGESFTQCPLTTDHTVLLNMVQDLQ”, the “soluble on expression in E. coli” value was “soluble”.
